Legend:
Caco-2 monolayers = test: Transport of single- and multiple-conjugates across Caco-2 monolayers in transwells; format: cell-based, Human
Method: Confluent cell monolayers, 2 to 3 weeks old, and having a TEER value of approximately 500 Ωcm^2, were first incubated with Dulbecco's MEM containing 1% of FBS for 30 min at 37° C. Subsequently, the incubation medium was removed, and the ^125I-BBI (10 μg/ml) conjugates in 1.5 ml of the medium was added to the apical chamber of the transwells. To the basal chamber, 2.5 ml of the medium was added and the transwells were incubated at 37° C. At predetermined times, the entire basal chamber medium (2.5 ml) from each transwell was removed and counted for radioactivity using a gamma counter. In each experiment, typically seven samples were taken at 1, 2, 3, 4, 5, 6 and 24 hr post-incubation. After the 24 hr samples were taken, the cell monolayers were rinsed three times with ice-cold PBS, cut out of the inserts, and counted for accumulated radioactivity using a gamma counter.
The integrity of the ^125I-BBI conjugates transported across the monolayers was studied using Sephadex G50 gel-filtration chromatography. Briefly, after the basal medium was sampled at 24 hr, 1.0 ml of the medium was centrifuged at 2000 rpm and then eluted from a G50 column (10 ml) using PBS; 1 ml fractions were collected and the fraction-associated radioactivity was determined using a gamma counter. Intact conjugates eluted at column void volume and fragments smaller than 1 kDa were eluted at or above the column volume.
In the transwell experiments, the conjugates were incubated with the apical side of the cells for 1 hr at 37° C. The transwells were then rinsed three times with ice-cold PBS and then reincubated with serum free medium. The release of the conjugates into the apical and the basal medium was chased for 24 hr by counting the entire basal or the apical medium at different times. The total counts obtained at the end of the chase period (transwells+media counts were added, and the release of the conjugates (% of total) at different times was calculated. To ensure that the counts obtained in the transwells at 24 hr were due to the presence of the conjugates in the cells and not non-specific binding to the plastic, the transwells were exposed to trypsin for 10 min, rinsed three times with ice-cold pbs, and subsequently counted for accumulated radioactivity.
BBI was modified with 2 or 4 palmitic acids, and the transport was determined in transwells. The cumulative transport of BBI, BBI modified with 4 palmitic acids, and BBI modified with 2 palmitic acids in Caco-2 monolayers were determined as BBI (ng/monolayer) ± SEM, n=3. The order of the transport extent was BBIssPal(4)>BBI>BBIssPal(2). The results of the internalization of the conjugates into the same cells were determined as the ng of BBI internalized per monolayer. […] The basal media obtained at 24 hr from the transwells was analyzed using a G50 column. […] However, a small, but significant, amount of the basal media of BBIssPal(2) consisted of intact conjugate. This quantity consisted of between about 10 and about 20% of the total radioactivity present in the basal medium.

[1] = tested on: Human colon carcinoma cells (Caco-2); test: Uptake of 125I-BBI conjugates into Caco-2 cell monolayers
[2] = Skin absorption of 125I-labeled BBI or BBIssPal; settings: 5 μl of 0.5 mg/ml on 0.38 cm^2, 30 minutes, 23° C.

B1: BBI: hydrophilic protein which has low uptake into cells and is not orally bioavailable; used for chemoprevention (protein, UniProt P01055 40-110, looked up)
Bowman-Birk type proteinase …: DDESSKPCCDQCACTKSNPPQCRCSDMRLNSCHSACKSCICALSYPAQCFCVDITDFCYEPCKPSEDDKEN
order of the transport extent (cumulative transport) (Caco-2 monolayers; Caco-2 transwells, n=3): BBIssPal(4)>BBI>BBIssPal(2) | transcytosis across the monolayers (G50 analysis of basal media) (Caco-2 monolayers; basal media at 24 hr): neither BBI nor BBIssPal(4) was transcytosed | Uptake (ng BBI/mg of cell protein)/hr ([1]; 1% FBS, 10 μg/ml, 60 min, 37° C., ± SEM, three monolayers): 2.2 ± 0.17 (ng BBI/mg of cell protein)/hr | Uptake (ng BBI/mg of cell protein)/hr ([1]; 10% FBS, 10 μg/ml, 60 min, 37° C., ± SEM, three monolayers): 1.3 ± 0.02 (ng BBI/mg of cell protein)/hr | Uptake (ng BBI/mg of cell protein)/hr ([1]; BSA/FA: fatty acid-loaded BSA 0.1% (3-molar excess of palmitic acid)): 3.9 ± 0.00 (ng BBI/mg of cell protein)/hr | Uptake (ng BBI/mg of cell protein)/hr ([1]; BSA: fatty acid-free BSA 0.1%): 4.8 ± 0.00 (ng BBI/mg of cell protein)/hr | Uptake (ng BBI/mg of cell protein)/hr ([1]; DTT-treated (50 mM, 5 min 60° C. and 25 min 37° C.), serum-free medium): 5.2 ± 0.00 (ng BBI/mg of cell protein)/hr | Uptake (ng BBI/mg of cell protein)/hr ([1]; Untreated, serum-free medium): 4.8 ± 0.00 (ng BBI/mg of cell protein)/hr | effect of defatted-BSA on uptake ([1]; defatted-BSA 0.1% in medium): not affected | effect of fatty acid-loaded BSA on uptake ([1]; fatty acid-loaded BSA 0.1%): again not affected | Uptake (ng BBI/mg of cell protein)/hr ([1]; serum free (BSA-free) Dulbecco medium): 4.8 ± 0.00 (ng BBI/mg of cell protein)/hr | Uptake (ng BBI/mg of cell protein)/hr ([1]; serum free, 10 μg/ml, 60 min, 37° C., ± SEM, three monolayers): 3.9 ± 0.19 (ng BBI/mg of cell protein)/hr | effect of exposure to DTT on uptake ([1]; serum-free medium): did not cause a reduction in the uptake | absorption into the mouse skins [2]: 0.14 μg/cm^2
